Patent publication US6972319B1, “Pituitary adenylate cyclase activating peptide (PACAP)receptor 3 (R3) agonists and their pharmacological methods of use” (priority 1999, dated 2005)
Read-outs that look alike come from different tables or passages of the source. Non-standard residues stand in square brackets, D forms with d. No end group written: not given here. Nle = CCCC[C@H](N)C(=O)O

T1: PACAP-R3 (Homo sapiens, UniProt P41587)
T1 sequence (P41587 24-438): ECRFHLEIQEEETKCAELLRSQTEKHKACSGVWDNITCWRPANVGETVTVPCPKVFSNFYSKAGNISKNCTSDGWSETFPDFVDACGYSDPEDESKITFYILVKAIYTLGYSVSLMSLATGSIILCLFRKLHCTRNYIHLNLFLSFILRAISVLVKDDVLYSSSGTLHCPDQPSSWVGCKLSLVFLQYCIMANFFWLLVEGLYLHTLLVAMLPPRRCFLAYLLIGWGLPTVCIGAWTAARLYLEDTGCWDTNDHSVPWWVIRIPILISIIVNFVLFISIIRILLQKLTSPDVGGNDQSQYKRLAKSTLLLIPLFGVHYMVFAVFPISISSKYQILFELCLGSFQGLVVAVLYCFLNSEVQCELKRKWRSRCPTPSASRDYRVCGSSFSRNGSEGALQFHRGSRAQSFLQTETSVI

T2: PACAP-R3 (human, UniProt P41587 24-438)
T2 sequence (looked up): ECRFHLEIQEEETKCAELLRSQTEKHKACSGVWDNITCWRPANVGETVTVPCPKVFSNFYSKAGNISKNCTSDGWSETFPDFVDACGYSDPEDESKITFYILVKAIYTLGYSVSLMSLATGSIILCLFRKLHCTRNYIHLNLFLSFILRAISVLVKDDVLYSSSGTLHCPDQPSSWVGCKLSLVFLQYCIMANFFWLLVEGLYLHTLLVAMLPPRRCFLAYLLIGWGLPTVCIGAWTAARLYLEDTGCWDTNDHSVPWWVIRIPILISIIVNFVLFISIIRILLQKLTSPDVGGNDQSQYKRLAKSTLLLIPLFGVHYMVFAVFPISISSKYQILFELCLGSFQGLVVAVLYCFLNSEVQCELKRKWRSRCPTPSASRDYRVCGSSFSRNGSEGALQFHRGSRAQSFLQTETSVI


What was measured:
[1] = target: T1, PACAP-R3; assay: Cyclic AMP SPA on CHO cells expressing PACAP R3; type: cell-based; set-up: expressed in transfected cells; host or cells: CHO cells (Geneticin selection); conditions: for R3 Selectivity: ratio of EC50 at R2 versus EC50 at R3
Method: CHO cells expressing the PACAP R3 were plated in 96-well plates (Costar) at 8×10^4 cell/well and grown at 37 C. for 24 hours in α MEM+nucleosides+glutamine (Giobco BRL), 10% FBS, 100 μg/ml Pen/Strep, 0.3 mg/ml glutamine, 1 mM HEPES, 0.5 mg/ml Geneticin (Gibco BRL). The media was removed and the plates were washed with PBS. The cells were incubated with a peptide, in Hepes-PBS-BSA with 0.4 mg/mlSoybean Trypsin Inhibitor, 0.5 mg/ml Bacitracin, 100 uM IBMX, for 15 min at 37 C. Cyclic AMP in the cell extracts was quantitated using the cAMP SPA direct screening assay system (Amersham Pharmacia Biotech Inc, Piscataway, N.J.,). The peptides shown in Table 3 were assayed for cAMP activity.
EC50 is defined as the concentration of the polypeptide at which 50% of maximum PACAP27 activity is achieved. “NA” denotes no detectable activities. “R3 Selectivity” is derived from the ratio of EC50 at R2 versus EC50 at R3.

[2] = target: T2, PACAP-R3; assay: cell-based or functional assay
[3] = cAMP SPA, CHO cells transfected with PACAP-R3, concentration at which 50% of maximum PACAP27 activity is achieved, NA = no detectable activities, read-out: R3 EC50

Molecule	EC50 [1, 3] [nM]	R3 EC50 [2] [nM]	R3 Selectivity [2]	also measured
H-HSDAVFTDNYTRLRKQLAVKKYLNDIKKGGT-OH [Peptide R3P21]	0.3	–	–	R3 Selectivity [1]: 60
H-HSDAVFTDNYTRLRKQMAAKKYLNSIGNKR-OH [Peptide R3P121]	1	–	–	R3 Selectivity [1]: 50
H-HSDAVFTDNYTRLRKQMAGKKYLNSIQNRI-OH [rR3P185]	4.5	–	–	R3 Selectivity [1]: 40
H-HSDAVFTDNYTRLRKQMAPKKYLNSIKNKR [Peptide R3P108]	300	–	–	R3 Selectivity [1]: 3
HSDAVFTDDYTRLRKEVAAKKYLESIKDKRY [Peptide R3P173]	–	–	–	EC50 [1]: 200 nM
HSDAVFTDNYTRLRKQMAQKKYLNSIKNKR [Peptide R3P109]	10	–	–	R3 Selectivity [1]: 100
HSDGIFTDSYSRYRKQLAAKKYLADVKK [Peptide R3P38]	–	–	–	R3 Selectivity [1]: 7
Ac-HSDAVFTENYTKLRKQLAAKKYLNDLKKGGT-NH2 [R3P1]	–	2	> 50	–
HSDAVFTDNYTRLRKQMAVKKYLNDILN [R3P48]	–	0.13	8	–
HSDAVFTDNYTRLRKQLAVKKYLNSILN [R3P46]	–	0.06	7	–
HSDAVFTDNYTRLRKQMAAKKYLNSIKN [R3P49]	–	0.27	30	–
Ac-HSDAVFTENYTKLRKQ[Nle]AAKKYLNDLKKGGT-NH2 [R3P0]	–	0.4	> 250	–
HSDAVFTDNYTRLRKQMAAKKYLNSILN [R3P47]	–	0.12	6	–

Continued, in another order:

EC50 [1, 3] [nM]	R3 EC50 [2] [nM]	R3 Selectivity [2]	Molecule	also measured
0.16	–	–	CC[C@H](C)[C@H](NC(=O)[C@@H](NC(=O)[C@H](CC(N)=O)NC(=O)[C@H](CC(C)C)NC(=O)[C@H](Cc1ccc(O)cc1)NC(=O)[C@H](CCCCN)NC(=O)[C@H](CCCCN)NC(=O)[C@H](C)NC(=O)[C@H](C)NC(=O)[C@H](CC(C)C)NC(=O)[C@H](CCC(N)=O)NC(=O)[C@H](CCCCN)NC(=O)[C@H](CCCNC(=N)N)NC(=O)[C@H](CC(C)C)NC(=O)[C@H](CCCNC(=N)N)NC(=O)[C@@H](NC(=O)[C@H](Cc1ccc(O)cc1)NC(=O)[C@H](CCC(N)=O)NC(=O)[C@H](CC(=O)O)NC(=O)[C@@H](NC(=O)[C@H](Cc1ccccc1)NC(=O)[C@@H](NC(=O)[C@H](C)NC(=O)[C@H](CC(=O)O)NC(=O)[C@H](CO)NC(=O)[C@@H](N)Cc1c[nH]cn1)C(C)C)[C@@H](C)O)[C@@H](C)O)[C@@H](C)O)C(=O)N[C@@H](CCCCN)C(=O)N[C@@H](CC(N)=O)C(=O)N[C@@H](CCCCN)C(=O)N[C@@H](CCCNC(=N)N)C(=O)N[C@@H](Cc1ccc(O)cc1)C(=O)O [Peptide R3P72]	–
0.08	–	–	CC[C@H](C)[C@H](NC(=O)[C@H](CO)NC(=O)[C@H](CCC(N)=O)NC(=O)[C@H](CC(C)C)NC(=O)[C@H](Cc1ccc(O)cc1)NC(=O)[C@H](CCCCN)NC(=O)[C@H](CCCCN)NC(=O)[C@H](C)NC(=O)[C@H](C)NC(=O)[C@@H](NC(=O)[C@H](CCC(N)=O)NC(=O)[C@H](CCCCN)NC(=O)[C@H](CCCNC(=N)N)NC(=O)[C@H](CC(C)C)NC(=O)[C@H](CCCNC(=N)N)NC(=O)[C@@H](NC(=O)[C@H](Cc1ccc(O)cc1)NC(=O)[C@H](CC(N)=O)NC(=O)[C@H](CC(=O)O)NC(=O)[C@@H](NC(=O)[C@H](Cc1ccccc1)NC(=O)[C@@H](NC(=O)[C@H](C)NC(=O)[C@H](CC(=O)O)NC(=O)[C@H](CO)NC(=O)[C@@H](N)Cc1c[nH]cn1)C(C)C)[C@@H](C)O)[C@@H](C)O)C(C)C)C(=O)N[C@@H](CC(C)C)C(=O)N[C@@H](CCCCN)C(=O)N[C@@H](CCCCN)C(=O)N[C@@H](CCCNC(=N)N)C(=O)N[C@@H](Cc1ccc(O)cc1)C(=O)O [Peptide R3P83]	–
0.3	–	–	CC[C@H](C)[C@H](NC(=O)[C@H](CO)NC(=O)[C@H](CC(N)=O)NC(=O)[C@H](CC(C)C)NC(=O)[C@H](Cc1ccc(O)cc1)NC(=O)[C@H](CCCCN)NC(=O)[C@H](CCCCN)NC(=O)[C@H](CC(C)C)NC(=O)[C@H](C)NC(=O)[C@H](CCSC)NC(=O)[C@H](CCC(N)=O)NC(=O)[C@H](CCCCN)NC(=O)[C@H](CCCNC(=N)N)NC(=O)[C@H](CC(C)C)NC(=O)[C@H](CCCNC(=N)N)NC(=O)[C@@H](NC(=O)[C@H](Cc1ccc(O)cc1)NC(=O)[C@H](CC(N)=O)NC(=O)[C@H](CC(=O)O)NC(=O)[C@@H](NC(=O)[C@H](Cc1ccccc1)NC(=O)[C@@H](NC(=O)[C@H](C)NC(=O)[C@H](CC(=O)O)NC(=O)[C@H](CO)NC(=O)[C@@H](N)Cc1c[nH]cn1)C(C)C)[C@@H](C)O)[C@@H](C)O)C(=O)N[C@@H](CCCCN)C(=O)N[C@@H](CC(N)=O)C(=O)N[C@@H](CCCCN)C(=O)N[C@@H](CCCNC(=N)N)C(=O)O [Peptide R3P105]	–
3	–	–	CC[C@H](C)[C@H](NC(=O)[C@H](CO)NC(=O)[C@H](CC(N)=O)NC(=O)[C@H](CC(C)C)NC(=O)[C@H](Cc1ccc(O)cc1)NC(=O)[C@H](CCCCN)NC(=O)[C@H](CCCCN)NC(=O)[C@H](CO)NC(=O)[C@H](C)NC(=O)[C@H](CCSC)NC(=O)[C@H](CCC(N)=O)NC(=O)[C@H](CCCCN)NC(=O)[C@H](CCCNC(=N)N)NC(=O)[C@H](CC(C)C)NC(=O)[C@H](CCCNC(=N)N)NC(=O)[C@@H](NC(=O)[C@H](Cc1ccc(O)cc1)NC(=O)[C@H](CC(N)=O)NC(=O)[C@H](CC(=O)O)NC(=O)[C@@H](NC(=O)[C@H](Cc1ccccc1)NC(=O)[C@@H](NC(=O)[C@H](C)NC(=O)[C@H](CC(=O)O)NC(=O)[C@H](CO)NC(=O)[C@@H](N)Cc1c[nH]cn1)C(C)C)[C@@H](C)O)[C@@H](C)O)C(=O)N[C@@H](CCCCN)C(=O)N[C@@H](CC(N)=O)C(=O)N[C@@H](CCCCN)C(=O)N[C@@H](CCCNC(=N)N)C(=O)O [Peptide R3P111]	–
3	–	–	Ac-HSDAVFTENYTKLRKQLAAKKYLNDLKKGGT [Peptide R3P2]	–
34	–	–	HKDGIFTDSYSRYRKQMAVKKYLAAVL-NH2 [PAC2]	–
–	0.5	> 200	HSDAVFTDNYTRLRKQMAAKKYLNSIKKK [R3P54]	–
–	0.26	90	HSDAVFTDNYTRLRKQMAAKKYLNSIKK [R3P51]	–
–	0.4	> 250	HSDAVFTDNYTRLRKQMAAKKYLNSIKKKRY [R3P52]	–
–	0.17	280	HSDAVFTDNYTRLRKQMAAKKYLNSIKNKRY [R3P55]	–
–	0.4	100	HSDAVFTDNYTRLRKQMAVKKYLNSIKKKRY [R3P56]	–
–	0.13	6	HSDAVFTDNYTRLRKQMAAKKYLNSILK [R3P50]	–
–	0.2	2500	HSDAVFTDNYTRLRKQMAAKKYLNSIKKKR [R3P53]	–
